Results taken from patent publication US20230133118A1 (ADAGENE, published 2023).

Columns and labels:
mouse CD137 [1] = molecular target: T1, mouse CD137 (mouse, UniProt P20334 24-187, limits assumed); experiment: not described; the reference is not named in the sentence (monkey and human CD137 in the sentences before)
T1 construct: It was recombinantly expressed in reporter cells for the NFkB assay; also called rodent CD137 receptors (mouse)
T1 sequence (looked up): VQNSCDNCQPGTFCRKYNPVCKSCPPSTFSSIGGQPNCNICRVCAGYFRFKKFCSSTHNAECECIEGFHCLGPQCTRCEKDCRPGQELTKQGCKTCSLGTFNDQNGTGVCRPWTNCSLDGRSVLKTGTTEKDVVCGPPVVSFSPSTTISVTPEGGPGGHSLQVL

rat CD137 = molecular target: T2, rat CD137 (rat); experiment: as above
T2 construct: It was recombinantly expressed in reporter cells for the NFkB assay; also called rodent CD137 receptors (rat)

human CD137 = molecular target: T3, human CD137 (human, UniProt Q07011 24-186); experiment: surface plasmon resonance (SPR); format not described
T3 construct: also called CD137 receptor; 4-1BB

mouse CD137 [2] = molecular target: T1, mouse CD137; experiment: cell-based or functional assay
cynomolgus monkey CD137 = cynomolgus monkey CD137 (cynomolgus monkey, UniProt A9YYE7 24-254); experiment: cell-based or functional assay
cynomolgus monkey CD137, sequence (A9YYE7 entry or part of it): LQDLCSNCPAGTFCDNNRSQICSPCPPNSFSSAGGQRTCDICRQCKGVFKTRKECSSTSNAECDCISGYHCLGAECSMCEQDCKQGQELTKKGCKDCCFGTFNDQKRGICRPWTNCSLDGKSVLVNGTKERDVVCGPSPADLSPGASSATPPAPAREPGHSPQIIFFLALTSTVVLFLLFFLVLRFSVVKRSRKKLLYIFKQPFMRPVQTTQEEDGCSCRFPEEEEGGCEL

T3 sequence (Q07011 24-186 limits assumed): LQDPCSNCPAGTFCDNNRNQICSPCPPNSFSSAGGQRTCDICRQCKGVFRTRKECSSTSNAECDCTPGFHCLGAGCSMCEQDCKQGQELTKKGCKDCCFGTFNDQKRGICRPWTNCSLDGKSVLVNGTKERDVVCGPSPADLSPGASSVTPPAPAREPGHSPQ

B1: ADG106 (antibody, human IgG4 S228P, kappa, V domains shown)
VH: EVQLVESGGGLVQPGGSLRLSCAASGFSLSTGGVGVGWIRQAPGKGLEWLALIDWADDKYYSPSLKSRLTISRDNSKNTLYLQLNSLRAEDTAVYYCARGGSDTVIGDWFAYWGQGTLVTVSS
VL: DIQLTQSPSSLSASVGDRVTITCRASQSIGSYLAWYQQKPGKAPKLLIYDASNLETGVPSRFSGSGSGTDFTLTISSLQPEDFATYYCQQGYYLWTFGQGTKVEIKR
notes: also called anti-CD137 antibody ADG106; fully human agonistic anti-CD137 monoclonal IgG4 antibody
Work on B1 yielded a fold lower affinity (mouse CD137 [1]) greater than 100 fold, a fold lower affinity (rat CD137) greater than 100 fold and a Kd (human CD137) of 3.7 nM. The “EC50 (read off the curve) (NFkB reporter, 293T cells expressing mouse CD137)” value (mouse CD137 [2]) was roughly 0.4 µg/mL and the “EC50 (read off the curve) (NFkB reporter, 293T cells expressing monkey CD137)” value (cynomolgus monkey CD137) was roughly 0.3 µg/mL.
